From article doi:10.1101/2025.10.12.681846v1 (bioRxiv, 2025)
Read-outs that look alike come from different tables or passages of the source.

Tests used:
[1] = tested on: STZ-induced type 1 diabetic mice; test: Type 1 diabetes treatment study in mice; type: in vivo, C57BL/6 mice
[2] = Biodistribution and intra-tissue distribution in diabetic mice; type: in vivo; conditions: three days after s.c. 10 mg/kg; CD31 staining
[3] = tested on: type 1 diabetic minipigs; test: Type 1 diabetes treatment study in minipigs; type: in vivo, Bama minipigs; conditions: for time BG remained within the target range (70 to 200 mg/dL): n = 3, statistical time 0-168 h for insulin-129 and 0-24 h for Lantus
[4] = tested on: type 1 diabetic mice; test: In vivo glucose-responsive insulin release in mice; conditions: for initial PIL: before glucose 3 g/kg
[5] = Pharmacokinetic studies in diabetic minipigs; type: in vivo, Bama minipigs; conditions: s.c., two-compartmental model, n = 3
[6] = tested on: STZ-induced type 1 diabetic mice; test: Long-term therapy as weekly formulation in diabetic mice; type: in vivo, C57BL/6 mice; conditions: for BG drop in the first few hours after injection: n = 5
[7] = Pharmacokinetics after intravenous injection in healthy mice; type: in vivo, C57BL/6J mice; conditions: i.v. 1 nmol/kg, two-compartment model, n = 5
[8] = tested on: type 1 diabetic minipigs; test: In vivo blood glucose-responsive insulin release in minipigs; conditions: for BG rise within 30 minutes: one day after insulin-129, i.v. glucose infusion
[9] = tested on: diabetic mice; test: Toxicity evaluation and histomorphology in mice; type: in vivo; conditions: one week post-injection, 10 mg/kg
[10] = Pharmacokinetics after subcutaneous injection in diabetic mice; type: in vivo; conditions: s.c. 12 mg/kg
[11] = molecular target: human IgG1-Fc (Homo sapiens, UniProt P01857); test: SPR binding to human IgG1-Fc; conditions: read-out: KD for human IgG1-Fc
[12] = molecular target: mouse IgG1-Fc (Mus musculus, UniProt P01868); test: SPR binding to mouse IgG1-Fc; conditions: for Kd: read-out: KD for IgG1-Fc, SPR, 25 °C, DPBS pH 7.4
[13] = tested on: type 1 diabetic minipigs; test: Fully automated insulin delivery system in diabetic minipigs; type: in vivo; conditions: 48 h
[14] = tested on: healthy mice; test: Isoglycaemic; type: in vivo; conditions: summary statement
[15] = tested on: STZ-induced type 1 diabetic mice; test: Isoglycaemic clamp at hyperglycaemia in diabetic mice; type: in vivo; conditions: BG clamped at 400 mg/dL; one day after 12 mg/kg; n = 5
[16] = tested on: type 1 diabetic mice; test: Intraperitoneal glucose tolerance test in diabetic mice; type: in vivo; conditions: i.p. glucose 1.5 g/kg, n = 5
[17] = molecular target: T1, human nostrin (Homo sapiens, UniProt Q8IVI9); test: SPR binding to human nostrin; conditions: read-out: KD for human nostrin
T1 sequence (Q8IVI9 1-506): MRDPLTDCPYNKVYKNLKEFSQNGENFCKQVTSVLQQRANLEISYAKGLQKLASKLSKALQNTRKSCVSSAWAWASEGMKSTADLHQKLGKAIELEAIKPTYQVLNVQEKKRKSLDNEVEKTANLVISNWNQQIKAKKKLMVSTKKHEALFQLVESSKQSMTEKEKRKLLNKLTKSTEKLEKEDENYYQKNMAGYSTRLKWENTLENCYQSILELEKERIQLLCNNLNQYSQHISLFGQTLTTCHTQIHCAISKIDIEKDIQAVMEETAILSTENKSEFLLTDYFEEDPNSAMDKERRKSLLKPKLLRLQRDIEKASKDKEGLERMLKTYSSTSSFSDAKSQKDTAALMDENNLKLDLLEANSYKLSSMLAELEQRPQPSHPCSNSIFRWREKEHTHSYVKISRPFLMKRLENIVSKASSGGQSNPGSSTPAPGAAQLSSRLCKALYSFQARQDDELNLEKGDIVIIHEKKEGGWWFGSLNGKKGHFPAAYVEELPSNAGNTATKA

[18] = molecular target: T2, mouse nostrin (Mus musculus, UniProt Q6WKZ7); test: SPR binding to mouse nostrin; conditions: for Kd: read-out: KD for nostrin, SPR, 25 °C, DPBS pH 7.4
T2 sequence (Q6WKZ7 1-506): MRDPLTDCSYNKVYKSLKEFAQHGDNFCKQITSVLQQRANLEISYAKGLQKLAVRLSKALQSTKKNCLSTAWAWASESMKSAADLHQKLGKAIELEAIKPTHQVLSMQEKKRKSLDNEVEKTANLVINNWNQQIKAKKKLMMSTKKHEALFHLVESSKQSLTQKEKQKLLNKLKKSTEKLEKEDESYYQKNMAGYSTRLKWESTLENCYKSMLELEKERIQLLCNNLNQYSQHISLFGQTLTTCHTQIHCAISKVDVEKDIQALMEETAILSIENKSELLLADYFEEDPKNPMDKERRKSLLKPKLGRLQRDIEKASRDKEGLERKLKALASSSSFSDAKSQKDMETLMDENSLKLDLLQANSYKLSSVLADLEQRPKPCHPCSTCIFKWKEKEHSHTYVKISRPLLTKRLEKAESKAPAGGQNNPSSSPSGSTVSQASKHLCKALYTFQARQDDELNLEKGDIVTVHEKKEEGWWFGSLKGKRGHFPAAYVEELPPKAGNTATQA

[19] = SPECT/CT imaging of 131I-labelled insulin-129 in diabetic mice; type: in vivo; conditions: s.c. 10 mg/kg
[20] = five days after 12 mg/kg, n = 5
[21] = one day after 12 mg/kg, i.p. glucose 3 g/kg
[22] = one day after 12 mg/kg, i.p. glucose 3 g/kg, n = 5

Sequence of mouse IgG1-Fc (P01868 98-324 limits assumed): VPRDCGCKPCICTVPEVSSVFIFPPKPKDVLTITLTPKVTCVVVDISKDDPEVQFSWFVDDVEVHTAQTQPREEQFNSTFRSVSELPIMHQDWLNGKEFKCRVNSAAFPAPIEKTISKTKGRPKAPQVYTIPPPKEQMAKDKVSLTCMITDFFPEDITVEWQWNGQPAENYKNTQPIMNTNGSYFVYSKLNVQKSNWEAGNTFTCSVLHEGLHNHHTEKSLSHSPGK

Substance: insulin icodec [reference compound]
- duration relative to insulin-129 at 12 mg/kg ([1]; 400 U/kg): roughly one-third
- time normoglycaemia maintained ([1]; single s.c. 400 U/kg (equivalent to 15.3 mg/kg), n = 5): approximately 72 hours

Substance: Cy5-labelled insulin-129: insulin-129 labelled with Sulfo-Cy5-NHS
- vascular association within the major organs [2]: high level of vascular association

Substance: insulin glargine [reference compound]
- time BG regulated in the normal range ([3]; Pig-Ⅰ, single dose 0.25 U/kg): less than 12 hours
- time BG regulated in the normal range ([3]; Pig-Ⅱ, single dose 0.33 U/kg): less than 24 hours
- time BG regulated in the normal range ([3]; Pig-Ⅲ, single dose 0.48 U/kg): less than 12 hours
- time BG remained within the target range (70 to 200 mg/dL) [3]: 42.9%
- glycaemic control with consecutive daily injections ([1]; 40 U/kg every 24 hours for seven days, n = 5): poor glycaemic control
- time normoglycaemia maintained ([1]; single s.c. 40 U/kg (equivalent to 1.46 mg/kg), n = 5): 4 h
- time normoglycaemia maintained ([1]; single s.c. 400 U/kg (equivalent to 14.6 mg/kg), n = 5): 12 h
- BG-correlated changes of insulin level ([4]; 400 U/kg, i.p. glucose 3.0 g/kg at three and six hours, n = 5): did not display BG-correlated changes

Substance: insulin-129: recombinant human insulin with 4-carboxy-3-fluorophenylboronic acid (FPBA) covalently conjugated at A1 and B29 sites
- half-life [5]: 127.5 ± 36.6 h
- normoglycaemia maintained by each injection ([6]; 10 mg/kg then three weekly 4.8 mg/kg s.c.): one week
- time remaining effective before BG returned to original level ([6]; after the fourth injection): more than 800 hours
- BG drop in the first few hours after injection ([6]; first injection (10 mg/kg s.c.)): 89.6 ± 13.1 mg/dL
- BG drop in the first few hours after injection ([6]; fourth weekly injection (4.8 mg/kg s.c.)): 78.8 ± 8.8 mg/dL
- stabilised BG ([6]; one day after the fourth injection): approximately 150 mg/dL
- BG drop in the first few hours after injection ([6]; second weekly injection (4.8 mg/kg s.c.)): 79.6 ± 12.4 mg/dL
- BG drop in the first few hours after injection ([6]; third weekly injection (4.8 mg/kg s.c.)): 77.8 ± 5.4 mg/dL
- average t1/2β [7]: 112.5 ± 17.4 h
- baseline serum insulin-129 level ([8]; Pig I): 369.1 μU/mL
- peak serum insulin-129 level ([8]; Pig I, glucose infusion): 907.3 μU/mL
- baseline serum insulin-129 level ([8]; Pig II): 375.5 μU/mL
- peak serum insulin-129 level ([8]; Pig II, glucose infusion): 1108.0 μU/mL
- baseline serum insulin-129 level ([8]; Pig III): 430.6 μU/mL
- peak serum insulin-129 level ([8]; Pig III, glucose infusion): 1520.5 μU/mL
- BG rise within 30 minutes ([8]; Pig Ⅰ): 399.6 mg/dL
- BG rise within 30 minutes ([8]; Pig Ⅱ): 316.8 mg/dL
- BG rise within 30 minutes ([8]; Pig Ⅲ): 599.4 mg/dL
- BG by 45 minutes ([8]; Pigs Ⅰ, Ⅱ and Ⅲ): below 200 mg/dL
- rise of serum insulin-129 level from baseline ([8]; glucose infusion, Pigs I, II and III): approximately threefold
- histomorphological analysis of major organs by H&E staining [9]: no apparent pathological alterations
- time BG remained within the target range (70 to 200 mg/dL) [3]: 73.0%
- time to peak plasma insulin-129 level ([10]; ELISA): within one hour
- peak average plasma insulin-129 level (PIL) ([10]; ELISA, n = 5): 1320.0 ± 41.3 μU/mL
- t1/2α ([10]; two-compartment model, n = 5): 5.4 ± 1.3 h
- t1/2β ([10]; two-compartment model, n = 5): 147.8 ± 16.8 h
- Kd [11]: 0.0367 µM
- lowest average BG level ([1]; one hour after s.c. 12 mg/kg, mean ± s.d., n = 5, SD): 76.0 ± 6.4 mg/dL
- treatment duration among the three insulin analogues ([1]; s.c. 4 mg/kg, insulin-1, insulin-29 and insulin-129, n = 5): longest duration
- hypoglycaemia (BG < 70 mg/dL) ([1]; s.c. 4, 8 and 12 mg/kg, any mouse): No hypoglycaemia
- extension of normoglycaemia compared with insulin glargine ([1]; single injection): approximately 47.5 folds
- time kept normoglycaemic ([1]; single s.c. 4 mg/kg, n = 5): 46 h
- time kept normoglycaemic ([1]; single s.c. 8 mg/kg, n = 5): 142 h
- time kept normoglycaemic ([1]; single s.c. 12 mg/kg, n = 5): 190 h
- increase in KD for IgG1-Fc ([12]; glucose from 5 to 20 mM): 5.0 fold
- Kd ([12]; 5 mM glucose): 0.137 µM
- Kd ([12]; 10 mM glucose): 0.276 µM
- Kd ([12]; 20 mM glucose): 0.691 µM
- Kd ([12]; absence of glucose): 0.0424 µM
- BG levels below 50 mg/dL ([13]; first of three minipigs): 0%
- BG levels below 50 mg/dL, average ([13]; mean ± s.d., n = 3, SD): 1.7 ± 2.2%
- BG levels below 50 mg/dL ([13]; second of three minipigs): 1.0%
- BG levels below 50 mg/dL ([13]; third of three minipigs): 4.2%
- temporal change in blood glucose clearance determined by clamp studies [14]: 2 fold
- mean glucose infusion rate compared with insulin glargine (5 U/kg) [15]: comparable mean glucose infusion rates
- BG before glucose administration ([16]; day 1 after 12 mg/kg): 96.8 ± 19.7 mg/dL
- peaking BG within 15 minutes ([16]; day 1 after 12 mg/kg): 194.8 ± 31.9 mg/dL
- BG before glucose administration ([16]; day 5 after 12 mg/kg): 163.1 ± 27.7 mg/dL
- peaking BG within 15 minutes ([16]; day 5 after 12 mg/kg): 310.3 ± 44.2 mg/dL
- Kd [17]: 0.241 µM
- increase in KD for nostrin ([18]; glucose from 0 to 20 mM): 19.5 fold
- increase in KD for nostrin ([18]; glucose from 5 to 20 mM): 8.4 fold
- Kd ([18]; 5 mM glucose): 0.201 µM
- Kd ([18]; 10 mM glucose): 0.605 µM
- Kd ([18]; 20 mM glucose): 1.68 µM
- Kd ([18]; absence of glucose): 0.086 µM
- synchronised increase in insulin level upon glucose injection ([4]; STZ-induced type 1 diabetic mice, summary statement): more than 3 fold
- initial PIL [4, 20]: 210.2 ± 31.7 μU/mL
- peak PIL ([4]; five days after 12 mg/kg, i.p. glucose 3 g/kg, n = 5): 573.7 ± 40.0 μU/mL
- PIL after decline within 120 minutes [4, 20]: 204.3 ± 52.0 μU/mL
- initial PIL ([4]; one day after 12 mg/kg, n = 5): 258.6 ± 37.6 μU/mL
- BG by 45 minutes [4, 21]: below 200 mg/dL
- increase in PIL [4, 21]: approximately 4.2 fold
- BG spike at 30 minutes [4, 22]: 310.7 ± 29.2 mg/dL
- peak PIL [4, 22]: 1080.4 ± 49.6 μU/mL
- PIL after decline ([4]; one day after 12 mg/kg, in tandem with the BG reduction, n = 5): 257.3 ± 45.2 μU/mL

Substance: ^131I-labelled insulin-129: insulin-129 labelled by 131I using the chloramine T labelling method
- skin absorption [19]: rapid skin absorption
